According to publication PMC12121391, “Crystal structure of ATP-dependent DNA ligase from Rhizobium phage vB_RleM_P10VF”:

Target: T1, P10VF-Lig (ATP-dependent DNA ligase) (Rhizobium phage vB_RleM_P10VF, UniProt A0A076YM08)
T1 sequence: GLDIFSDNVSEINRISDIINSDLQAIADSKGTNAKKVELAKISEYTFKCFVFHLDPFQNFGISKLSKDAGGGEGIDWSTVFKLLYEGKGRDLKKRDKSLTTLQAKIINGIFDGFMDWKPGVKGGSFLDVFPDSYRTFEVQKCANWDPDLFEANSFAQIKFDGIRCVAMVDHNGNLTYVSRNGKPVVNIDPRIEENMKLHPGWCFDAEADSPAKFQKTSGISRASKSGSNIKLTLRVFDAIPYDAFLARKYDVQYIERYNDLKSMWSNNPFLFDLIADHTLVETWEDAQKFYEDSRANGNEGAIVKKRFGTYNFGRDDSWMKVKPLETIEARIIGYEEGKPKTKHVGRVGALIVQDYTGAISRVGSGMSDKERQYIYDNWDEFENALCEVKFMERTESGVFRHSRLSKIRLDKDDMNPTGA
Experiment: X-ray crystallography; AMP transferred to the DNA 5'-phosphate (step 2 intermediate); EDTA 5 mM; 2.2 Å; Crystallization: protein in 50 mM Tris pH 7.5, 200 mM NaCl, 1 mM beta-mercaptoethanol; 1.2 eq nicked duplex, 5 mM EDTA, 30 min on ice; 24% PEG 4000, 100 mM bis-Tris pH 5.5, 4 °C (278 K in Table 2)
Conditions: protein: recombinant, SeMet-substituted, 21 bp, blunt ends

B1: nicked DNA duplex (21 nt complement, 10 + 11 nt nicked strand) (dsDNA)
DNA 1: TTCCGACAGTGGGGTCGCAAT
DNA 2: ATTGCGACCC
DNA 3: CACTATCGGAA
modifications: 2'-O-methyl one nucleotide upstream of the 3' terminus at the nick (strand 2); 5'-phosphate at the nick (strand 3), adenylated (AMP) in the crystal
- binding result: binds
